3 compounds from paper PMC5579238, “MAPK1 of Leishmania donovani interacts and phosphorylates HSP70 and HSP90 subunits of foldosome complex” (Scientific Reports, 2017) can be followed below.

Structures can show the parent of a compound that is named as a salt.

In general, Ki refers to the equilibrium dissociation constant of an inhibitor or competing ligand from its target.

One experiment deals with T1, LdMAPK1 (Leishmania donovani, UniProt E2CWC1).
T1 construct: GST fused rLdMAPK1 (pGEX-KG-LdMAPK1), expressed in E. coli
T1 sequence (E2CWC1 1-358): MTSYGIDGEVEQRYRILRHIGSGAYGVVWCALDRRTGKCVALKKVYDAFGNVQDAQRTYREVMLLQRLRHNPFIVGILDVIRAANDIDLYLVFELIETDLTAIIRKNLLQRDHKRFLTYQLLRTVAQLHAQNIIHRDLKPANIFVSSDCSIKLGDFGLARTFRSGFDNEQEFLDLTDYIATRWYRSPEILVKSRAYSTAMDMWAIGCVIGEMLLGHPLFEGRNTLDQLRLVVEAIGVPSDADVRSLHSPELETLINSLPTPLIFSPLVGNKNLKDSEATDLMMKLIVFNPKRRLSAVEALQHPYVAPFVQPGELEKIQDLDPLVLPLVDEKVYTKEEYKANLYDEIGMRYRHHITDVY
Description: Kinase-Glo Plus ATP consumption assay with recombinant HSP90 or HSP70 as substrate; Dixon plot. Type of experiment: biochemical. (In general: Kinase-Glo reads ATP consumption through a luciferase reaction.)

The target of experiment [1] is Leishmania donovani MAPK1 (L. donovani (endogenous in promastigotes)).

Sequence of HSP70 (P17804 whole entry): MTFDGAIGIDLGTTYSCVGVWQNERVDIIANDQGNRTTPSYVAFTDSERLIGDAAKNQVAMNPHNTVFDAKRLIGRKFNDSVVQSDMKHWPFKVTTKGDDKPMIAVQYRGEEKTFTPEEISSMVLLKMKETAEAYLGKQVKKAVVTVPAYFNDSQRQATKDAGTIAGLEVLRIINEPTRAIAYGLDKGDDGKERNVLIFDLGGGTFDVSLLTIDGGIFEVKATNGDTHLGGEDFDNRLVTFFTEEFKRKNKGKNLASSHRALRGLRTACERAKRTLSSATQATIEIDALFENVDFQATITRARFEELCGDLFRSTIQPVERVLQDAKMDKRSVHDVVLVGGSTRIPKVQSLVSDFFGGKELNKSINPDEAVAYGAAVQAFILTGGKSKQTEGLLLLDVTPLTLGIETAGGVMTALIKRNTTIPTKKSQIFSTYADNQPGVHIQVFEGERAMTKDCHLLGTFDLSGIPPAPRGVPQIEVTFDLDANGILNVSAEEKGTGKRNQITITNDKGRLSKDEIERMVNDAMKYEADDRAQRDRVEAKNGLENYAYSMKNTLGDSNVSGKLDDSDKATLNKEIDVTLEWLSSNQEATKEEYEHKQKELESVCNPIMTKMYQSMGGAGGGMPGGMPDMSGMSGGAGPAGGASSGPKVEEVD

On to `CCOc1ccc(C=C2SC(=O)N(CCN)C2=O)cc1` [AMTZD, 3-(2-aminoethyl)-5-([4-ethoxyphenyl]methylene)-2,4-thiazolidinedione HCl], for which the Ki at LdMAPK1 is 2720 ± 140 nM.

Take HSP90 (natural protein): in experiment [1], the Km of the in vitro kinase assay (ATP consumption, Kinase-Glo) of recombinant GST-LdMAPK1 with recombinant His-tagged HSP90 as substrate worked out at 16.7 nM.

With “HSP70 (from UniProt P17804 1-653) (natural protein)”, the Km of the in vitro kinase assay (ATP consumption, Kinase-Glo) of recombinant GST-LdMAPK1 with recombinant His-tagged HSP70 as substrate in experiment [1] stood at 17.6 nM.
